{"source": "IntAct's records for PubMed 16326715", "parents": {"B1": {"name": "Cytochrome b-245 light chain (Homo sapiens), P13498 (parent)", "chain": "MGQIEWAMWANEQALASGLILITGGIVATAGRFTQWYFGAYSIVAGVFVCLLEYPRGKRKKGSTMERWGQKYMTAVVKLFGPFTRNYYVRAVLHLLLSVPAGFLLATILGTACLAIASGIYLLAAVRGEQWTPIEPKPRERPQIGGTIKQPPSNPPPRPPAEARKKPSEEEAAVAAGGPPGGPQVNPIPVTDEVV"}, "B2": {"name": "Neutrophil cytosol factor 1 (Homo sapiens), P14598 (parent)", "chain": "MGDTFIRHIALLGFEKRFVPSQHYVYMFLVKWQDLSEKVVYRRFTEIYEFHKTLKEMFPIEAGAINPENRIIPHLPAPKWFDGQRAAENRQGTLTEYCSTLMSLPTKISRCPHLLDFFKVRPDDLKLPTDNQTKKPETYLMPKDGKSTATDITGPIILQTYRAIANYEKTSGSEMALSTGDVVEVVEKSESGWWFCQMKAKRGWIPASFLEPLDSPDETEDPEPNYAGEPYVAIKAYTAVEGDEVSLLEGEAVEVIHKLLDGWWVIRKDDVTGYFPSMYLQKSGQDVSQAQRQIKRGAPPRRSSIRNAHSIHQRSRKRLSQDAYRRNSVRFLQQRRRQARPGPQSPGSPLEEERQTQRSKPQPAVPPRPSADLILNRCSESTKRKLASAV", "partner": "B1 chain"}}, "data": [{"variants_of": "B1", "details": "with ncf1_human NCF1, P14598", "values": [{"variant": "A163G;R164G", "effect of a mutation on the interaction": "decreasing interaction"}]}, {"variants_of": "B2", "details": "with cy24a_human CYBA, P13498", "values": [{"variant": "I164A", "effect of a mutation on the interaction": "decreasing interaction"}, {"variant": "F209A", "effect of a mutation on the interaction": "decreasing interaction"}]}]}
